Experimental data from patent US20190144538A1 (TETRAGENETICS, published 2019).
One block for each binder: values may come before it.

Columns and labels:
[1] = target: human Kv1.3 protein on cells (human, UniProt P22001 1-575); test: cell-based or functional assay
[2] = target: human Kv1.3 protein with C-terminal FLAG and 10xHis tags (human) (UniProt P22001); test: ELISA, supernatant, dilution 50
[3] = target: human Kv1.3 protein with C-terminal FLAG and 10xHis tags (human) (UniProt P22001); test: ELISA, supernatant, dilution 6250
[4] = target: human Kv1.3 protein with C-terminal FLAG and 10xHis tags (human) (UniProt P22001); test: ELISA, supernatant, dilution 250
[5] = target: human Kv1.3 protein with C-terminal FLAG and 10xHis tags (human) (UniProt P22001); test: ELISA, supernatant, dilution 1250

Chain of human Kv1.3 protein with C-terminal FLAG and 10xHis tags (human) (P22001 other isoform, or with tags, fused parts or gaps): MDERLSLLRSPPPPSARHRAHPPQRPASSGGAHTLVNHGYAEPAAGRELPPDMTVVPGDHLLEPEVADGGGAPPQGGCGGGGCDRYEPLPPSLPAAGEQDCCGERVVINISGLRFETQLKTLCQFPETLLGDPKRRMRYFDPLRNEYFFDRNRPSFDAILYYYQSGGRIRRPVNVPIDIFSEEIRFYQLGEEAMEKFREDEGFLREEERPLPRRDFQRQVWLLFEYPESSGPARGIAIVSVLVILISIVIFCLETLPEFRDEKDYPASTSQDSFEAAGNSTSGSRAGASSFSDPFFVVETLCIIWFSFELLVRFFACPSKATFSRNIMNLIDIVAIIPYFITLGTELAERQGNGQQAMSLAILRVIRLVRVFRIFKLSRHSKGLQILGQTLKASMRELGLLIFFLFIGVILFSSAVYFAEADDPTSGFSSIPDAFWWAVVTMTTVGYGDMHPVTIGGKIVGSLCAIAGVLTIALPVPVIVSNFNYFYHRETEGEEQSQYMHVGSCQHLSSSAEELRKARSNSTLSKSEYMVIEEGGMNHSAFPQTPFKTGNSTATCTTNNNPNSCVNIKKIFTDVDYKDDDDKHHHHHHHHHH
Chain of human Kv1.3 protein on cells (P22001 whole entry): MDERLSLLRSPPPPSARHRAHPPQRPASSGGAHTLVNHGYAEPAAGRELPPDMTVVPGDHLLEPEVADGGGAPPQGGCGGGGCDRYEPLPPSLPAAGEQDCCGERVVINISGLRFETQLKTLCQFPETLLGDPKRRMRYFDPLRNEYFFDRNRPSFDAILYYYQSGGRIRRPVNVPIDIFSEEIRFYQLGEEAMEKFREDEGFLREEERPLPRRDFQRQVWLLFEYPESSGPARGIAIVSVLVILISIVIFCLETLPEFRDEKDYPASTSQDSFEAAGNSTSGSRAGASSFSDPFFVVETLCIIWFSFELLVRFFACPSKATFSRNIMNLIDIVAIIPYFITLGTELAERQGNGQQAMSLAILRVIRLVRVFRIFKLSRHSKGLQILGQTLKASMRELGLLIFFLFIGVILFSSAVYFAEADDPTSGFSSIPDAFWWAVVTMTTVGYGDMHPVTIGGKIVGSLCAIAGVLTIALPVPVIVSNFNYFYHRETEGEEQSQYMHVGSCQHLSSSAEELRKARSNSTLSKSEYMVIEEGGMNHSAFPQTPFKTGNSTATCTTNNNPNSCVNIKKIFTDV

IC50, dose-response of Kv1.3 current block (whole-cell patch clamp) [1]: 109 nM
B1: 1A3 (Fc fusion, not shown: small tags and cut ends; a dimerising Fc or GST)
scFv (part 1 of 2): LDIQMTQSPSSVTASVGEKVTINCKSSQSVVSASNQKSYLNWYQQRPGQSPRLLIYYASTQELGIPDRFSGSGSTTDFTLTISSVQPEDAAVYYCQQAYSAPYNFGSGTRLEIK
scFv (part 2 of 2): QVQLQESGGGLVQPGGSLRLSCAASGFTFSINGMSWVRQAPGKEVEWVSSINSGGEITNYRDSVKGRFTISRDNVKNTLYLQMNSLKPEDTAFYHCVTGIVAYDYWGQGTQVTVSS

ELISA signal [2]: 0.077 | ELISA signal [3]: 0.084 | ELISA signal [4]: 0.074 | ELISA signal [5]: 0.077 | IC50, dose-response of Kv1.3 current block (whole-cell patch clamp) [1]: 6 nM
B2: 19724p1.E6 (Fc fusion, not shown: small tags and cut ends; a dimerising Fc or GST)
scFv (part 1 of 2): ALTQPASVSANLGETVEITCSGGYSDDGSYYYGWYQQKSPGSAPVTVIYENNKRPSDIPSRFSGSLSGSTNTLTITGVRAEDEAVYYCGSWDSSAGIFGAGTTLTVL
scFv (part 2 of 2): MAAVTLDESGGGLQTPGGTLSLVCKASGFTFSSHGMQWVRQAPGKGLEWVAGISRDGSRTRYGAAVKGRATISRDNGQSTVRLQLNNLRAEDTAIYFCAKSAYECDGYSCWTFIAGSIDAWGHGTEVIVS
